# Measurements reported in patent US20160263137A1.
# Key:
# [1] = biological target: death receptor (DR) on the plasma membrane of MDA-MB-231 cells; assay: cell-based or functional assay
# [2] = biological target: death receptor (DR) on the plasma membrane of MDA-MB-231 cells; assay: fluorescence of cell-associated r-TRAIL on MDA-MB-231 cells, 4 C (membrane only) against 37 C (membrane plus internalised), r-TRAIL-Gelipo 0.2 ug/mL after HAase treatment
Substance,"apoptosis ratio, Annexin V-FITC/PI flow cytometry, MDA-MB-231 cells, 12 h, free TRAIL 2 ng/mL [1] [%]","apoptosis ratio, Annexin V-FITC/PI flow cytometry, MDA-MB-231 cells, 12 h, free TRAIL 20 ng/mL [1] [%]","viability, Annexin V-FITC/PI flow cytometry, MDA-MB-231 cells, 12 h, free TRAIL 20 ng/mL [1] [%]",percent of r-TRAIL bound onto the membrane [2] [%]
His-ILZ-TRAIL (residues 114-281) (from UniProt P50591 114-281) (ligand),36.5,51.7,32.3,
"rhodamine-labeled TRAIL (His-ILZ-TRAIL, residues 114-281, labelled with rhodamine NHS ester) (from UniProt P50591 114-281) (ligand)",,,,80
